Experimental data reported in the supplement of paper PMC9112550, “Optimization of the antimicrobial peptide Bac7 by deep mutational scanning” (BMC Biology, 2022).

test system: Escherichia coli TOP10; test: shrunken log2 fold change of peptide-encoding DNA abundance (4.5 h post-induction vs induction); higher = less antimicrobial activity (less host growth inhibition); details: time post-induction: 4.5 h; library: site-saturation at positions 5, 18, 19, 20
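Further: peptides expressed intracellularly from a pBAD plasmid library in pooled LB shake-flask culture, induced with 0.3% L-arabinose, DNA abundance read by NGS, three biological replicates, DESeq2 with apeglm shrinkage.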

Sequence | shrunken log2 fold change
RRIRVRPPRLPRPRPRPQCIPRP | 0.101
RRIRVRPPRLPRPRPRPQDKPRP | -0.603
RRIRVRPPRLPRPRPRPQFEPRP | -0.119
RRIRVRPPRLPRPRPRPQHLPRP | -0.117
RRIRVRPPRLPRPRPRPQHNPRP | -0.604
RRIRVRPPRLPRPRPRPQHSPRP | -0.245
RRIRVRPPRLPRPRPRPQIAPRP | -0.0465
RRIRVRPPRLPRPRPRPQIEPRP | -0.0116
RRIRVRPPRLPRPRPRPQKWPRP | 0.202
RRIRVRPPRLPRPRPRPQLWPRP | 0.0627
RRIRVRPPRLPRPRPRPQMLPRP | -0.158
RRIRVRPPRLPRPRPRPQMPPRP | 0.204
RRIRVRPPRLPRPRPRPQNNPRP | -0.66
RRIRVRPPRLPRPRPRPQPHPRP | 0.0498
RRIRVRPPRLPRPRPRPQQAPRP | -0.0616
RRIRVRPPRLPRPRPRPQQHPRP | -0.0119
RRIRVRPPRLPRPRPRPQRPPRP | 0.306
RRIRVRPPRLPRPRPRPQRRPRP | 0.0241
RRIRVRPPRLPRPRPRPQTRPRP | 0.355
RRIRVRPPRLPRPRPRPQVFPRP | -0.0729
RRIRVRPPRLPRPRPRPQVHPRP | -0.14
RRIRVRPPRLPRPRPRPQVQPRP | -0.208
RRIRVRPPRLPRPRPRPQWFPRP | -0.134
RRIRVRPPRLPRPRPRPQWWPRP | 0.0756
RRIRVRPPRLPRPRPRPQYHPRP | -0.648

Sequence | shrunken log2 fold change
RRIRVRPPRLPRPRPRPRAMPRP | 0.213
RRIRVRPPRLPRPRPRPRDMPRP | -0.0624
RRIRVRPPRLPRPRPRPRFHPRP | -0.264
RRIRVRPPRLPRPRPRPRKIPRP | -0.0978
RRIRVRPPRLPRPRPRPRLYPRP | 0.13
RRIRVRPPRLPRPRPRPRMKPRP | -0.167
RRIRVRPPRLPRPRPRPRMWPRP | 0.271
RRIRVRPPRLPRPRPRPRNFPRP | -0.275
RRIRVRPPRLPRPRPRPRNIPRP | -0.0258
RRIRVRPPRLPRPRPRPRPAPRP | 0.678
RRIRVRPPRLPRPRPRPRPDPRP | 0.216
RRIRVRPPRLPRPRPRPRQTPRP | -0.0375
RRIRVRPPRLPRPRPRPRSCPRP | 0.0646
RRIRVRPPRLPRPRPRPRTKPRP | 0.0796
RRIRVRPPRLPRPRPRPRTLPRP | -0.222
RRIRVRPPRLPRPRPRPRVFPRP | 0.218
RRIRVRPPRLPRPRPRPRYNPRP | -0.381
RRIRVRPPRLPRPRPRPSASPRP | -0.2
RRIRVRPPRLPRPRPRPSDDPRP | -0.417
RRIRVRPPRLPRPRPRPSFMPRP | -0.384
RRIRVRPPRLPRPRPRPSGLPRP | 0.0687
RRIRVRPPRLPRPRPRPSGVPRP | 0.0069
RRIRVRPPRLPRPRPRPSHFPRP | -0.443
RRIRVRPPRLPRPRPRPSHLPRP | -0.443
RRIRVRPPRLPRPRPRPSKYPRP | -0.783

Sequence | shrunken log2 fold change
RRIRVRPPRLPRPRPRPSLYPRP | -0.62
RRIRVRPPRLPRPRPRPSMAPRP | -0.0698
RRIRVRPPRLPRPRPRPSMLPRP | -0.395
RRIRVRPPRLPRPRPRPSMPPRP | -0.343
RRIRVRPPRLPRPRPRPSNNPRP | -0.662
RRIRVRPPRLPRPRPRPSNQPRP | -0.507
RRIRVRPPRLPRPRPRPSPRPRP | 0.415
RRIRVRPPRLPRPRPRPSQEPRP | -0.549
RRIRVRPPRLPRPRPRPSRLPRP | 0.599
RRIRVRPPRLPRPRPRPSRMPRP | -0.0384
RRIRVRPPRLPRPRPRPSTTPRP | -0.0817
RRIRVRPPRLPRPRPRPSYEPRP | -0.298
RRIRVRPPRLPRPRPRPTCCPRP | 0.095
RRIRVRPPRLPRPRPRPTCYPRP | -0.118
RRIRVRPPRLPRPRPRPTEIPRP | 0.221
RRIRVRPPRLPRPRPRPTGAPRP | 0.47
RRIRVRPPRLPRPRPRPTGIPRP | -0.115
RRIRVRPPRLPRPRPRPTIIPRP | -0.479
RRIRVRPPRLPRPRPRPTKQPRP | -0.0322
RRIRVRPPRLPRPRPRPTLYPRP | -0.155
RRIRVRPPRLPRPRPRPTNPPRP | -0.296
RRIRVRPPRLPRPRPRPTNRPRP | 3.75
RRIRVRPPRLPRPRPRPTQMPRP | 0.19
RRIRVRPPRLPRPRPRPTQYPRP | 0.166
RRIRVRPPRLPRPRPRPTRFPRP | 0.0403
